Assay results: article PMC12884772, “Macrophagic Sclerostin Loop2‐ApoER2 Interaction Required by Sclerostin for Cardiovascular Protective Action” (Advanced Science, 2025)
Changes are numbered by the printed parent chain. Names and notes keep the numbering of the source.

T1: ApoER2 (Mus musculus, UniProt Q924X6)
T1 construct: FLAG; expressed in transfected cells; host or cells: RAW264.7
T1 sequence (Q924X6 29-996): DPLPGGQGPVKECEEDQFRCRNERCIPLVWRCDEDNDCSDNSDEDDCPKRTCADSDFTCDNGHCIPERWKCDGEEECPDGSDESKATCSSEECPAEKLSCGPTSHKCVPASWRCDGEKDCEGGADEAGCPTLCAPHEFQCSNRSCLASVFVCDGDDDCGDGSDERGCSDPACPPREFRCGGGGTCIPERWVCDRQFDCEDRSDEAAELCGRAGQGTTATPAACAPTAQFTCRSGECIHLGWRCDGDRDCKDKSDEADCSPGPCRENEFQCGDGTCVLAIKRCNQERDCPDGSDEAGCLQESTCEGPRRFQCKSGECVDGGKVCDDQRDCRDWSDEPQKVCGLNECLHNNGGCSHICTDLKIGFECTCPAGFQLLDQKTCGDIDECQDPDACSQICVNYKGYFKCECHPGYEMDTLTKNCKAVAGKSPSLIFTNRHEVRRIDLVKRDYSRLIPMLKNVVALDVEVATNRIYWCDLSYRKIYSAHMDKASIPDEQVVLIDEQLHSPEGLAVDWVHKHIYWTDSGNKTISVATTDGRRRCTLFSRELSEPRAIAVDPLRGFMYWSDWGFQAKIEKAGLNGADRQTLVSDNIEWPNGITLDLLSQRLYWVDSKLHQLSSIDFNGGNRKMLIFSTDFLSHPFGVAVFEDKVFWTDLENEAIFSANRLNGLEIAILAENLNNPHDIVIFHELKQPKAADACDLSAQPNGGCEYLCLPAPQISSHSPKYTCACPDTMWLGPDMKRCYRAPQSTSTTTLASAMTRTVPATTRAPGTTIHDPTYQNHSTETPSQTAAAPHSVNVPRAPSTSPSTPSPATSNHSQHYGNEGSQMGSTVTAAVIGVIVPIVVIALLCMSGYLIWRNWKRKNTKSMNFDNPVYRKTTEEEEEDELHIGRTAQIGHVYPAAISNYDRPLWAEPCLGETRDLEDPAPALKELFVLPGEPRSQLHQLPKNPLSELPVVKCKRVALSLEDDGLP

B1: SOST^loop2m: sclerostin mutein with I94A, G95A, R96A, K98A, W99A, encoded by sost^loop2m (protein)
chain: QGWQAFRNDATEVIPGLGEYPEPPPENNQTMNRAENGGRPPHHPYDAKDVSEYSCRELHYTRFLTDGPCRSAKPVTELVCSGQCGPARLLPNAAAAVAAWRPNGPDFRCIPDRYRAQRVQLLCPGGAAPRSRKVRLVASCKCKRLTRFHNQSELKDFGPETARPQKGRKPRPGARGAKANQAELENAY
B2: ApoER2‐M2: ApoER2 mutein P253A, T254A, G268A, W269A, R270A (protein, UniProt Q924X6 29-996, looked up, variant P253A T254A G268A W269A R270A)
Low-density lipoprotein …: T1 sequence (Q924X6 29-996) with P225A, T226A, G240A, W241A, R242A
B3: ApoER2‐M8: ApoER2 mutein P253A, T254A, G268A, W269A, R270A, N311A, Q312A, E313A, encoded by Lrp8m (protein, UniProt Q924X6 29-996, looked up, variant P253A T254A G268A W269A R270A N311A Q312A E313A)
Low-density lipoprotein …: T1 sequence (Q924X6 29-996) with P225A, T226A, G240A, W241A, R242A, N283A, Q284A, E285A

Columns and labels:
ApoER2 = molecular target: T1, ApoER2; assay: Co‐immunoprecipitation of wild‐type/mutated sclerostin with ApoER2 in macrophages (RAW264.7); type: binding; conditions: Figure 6E
Method: The interaction of full‐length (FL)/truncated ApoER2 with full‐length (FL) /truncated sclerostin in macrophages (RAW264.7) were determined by pull‐down assay and Co‐IP assay. The binding affinity of ApoER2 to FL sclerostin and sclerostin loop2 were determined by biolayer interferometry (BLI) analysis. Moreover, the binding of sclerostin to ApoER2 on macrophages (RAW264.7) was examined by confocal microscopy.

sclerostin loop2 = sclerostin loop2 (Mus musculus, UniProt Q99P68); assay: Pull‐down assay of ApoER2 muteins with sclerostin loop2; type: binding; conditions: Figure 6D
Chain of sclerostin loop2 (Q99P68 107-132 limits assumed): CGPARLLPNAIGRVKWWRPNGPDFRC
Method: The interaction residues within ApoER2 to sclerostin loop2 were determined in combination with pull‐down assay and BLI analysis. Based on the interaction residues within ApoER2 to sclerostin loop2, a series of Lrp8 mutations were developed. Based on the interaction residues within sclerostin loop2 to ApoER2, a series of sost mutations were developed.
Cell lysates were collected using RIPA Lysis and Extraction Buffer (Thermo Scientific, 89 901) supplemented with Protease Inhibitor Cocktail (CST, 5871) and centrifuged at 4000 rpm for 30 min at 4 °C, and replaced with binding buffer (PBS buffer, 20 mM imidazole, pH 8.0). After pretreatment with binding buffer three times, 20 µL Ni‐NTA Magnetic Agarose Beads were incubated with 6 µg His‐SOST and 6 µg His‐loop3 peptide, respectively, in binding buffer for 2 h at 4 °C with gentle rotation. The beads carrying His‐SOST and His‐loop3 peptide were then incubated with 500 µL cell lysate supernatant at 4 °C overnight with gentle rotation. To eliminate the influence of non‐specific binding between beads and cell lysate, 20 µL beads and 500 µL cell lysate were incubated under the same conditions. […]
The eluted liquid from pull‐down assay was then mixed with SDS‐PAGE loading buffer and boiled for 10 min at 95 °C to make samples. […] The ECL solution (BIO‐RAD, 1 705 061) was used to visualize detected proteins. […]

Row | Molecule | Interaction with ApoER2 by co‐IP (ApoER2) | Binding ability of sclerostin loop2 to ApoER2 mutein versus wild‐type ApoER2 (sclerostin loop2)
1 | B1 | No interaction | –
2 | B2 | – | dramatically weaker
3 | B3 | – | dramatically weaker
